Test results as given in patent US20240117018A1.

How the values were obtained:
Assay in all cases: cell-based or functional assay
[1] = molecular target: HIV-1 Env of pseudovirus 6952.v1.c20 (HIV-1)
[2] = molecular target: HIV-1 Env of pseudovirus BJOX028000.10.3 (HIV-1)
[3] = molecular target: HIV-1 Env of pseudovirus T251-18 (HIV-1)
[4] = molecular target: HIV-1 Env of pseudovirus X2131_C1_B5 (HIV-1)
[5] = molecular target: HIV-1 Env of pseudovirus X2088_c9 (HIV-1)
[6] = molecular target: HIV-1 Env of pseudovirus P1981_C5_3 (HIV-1)
[7] = molecular target: HIV-1 Env of pseudovirus 231965.c01 (HIV-1)
[8] = molecular target: HIV-1 Env of pseudovirus C1080.c03 (HIV-1)
[9] = molecular target: HIV-1 Env of pseudovirus X1193_c1 (HIV-1)
[10] = molecular target: HIV-1 Env of pseudovirus BJOX009000.02.4 (HIV-1)
[11] = molecular target: HIV-1 Env of pseudovirus 89-F1_2_25 (HIV-1)
[12] = molecular target: HIV-1 Env of pseudovirus 3103.v3.c10 (HIV-1)
[13] = molecular target: HIV-1 Env of pseudovirus 6545.v4.c1 (HIV-1)
[14] = molecular target: HIV-1 Env of pseudovirus BJOX025000.01.1 (HIV-1)
[15] = molecular target: HIV-1 Env of pseudovirus 0815.v3.c3 (HIV-1)
[16] = molecular target: HIV-1 Env of pseudovirus A07412M1.vrc12 (HIV-1)
[17] = molecular target: HIV-1 Env of pseudovirus P0402_c2_11 (HIV-1)
[18] = molecular target: HIV-1 Env of pseudovirus 231966.c02 (HIV-1)
[19] = molecular target: HIV-1 Env of pseudovirus 6041.v3.c23 (HIV-1)
[20] = molecular target: HIV-1 Env of pseudovirus 3016.v5.c45 (HIV-1)
[21] = molecular target: HIV-1 Env of pseudovirus C4118.c09 (HIV-1)
[22] = molecular target: HIV-1 Env of pseudovirus X1254_c3 (HIV-1)
[23] = molecular target: HIV-1 Env of pseudovirus T255-34 (HIV-1)
[24] = molecular target: HIV-1 Env of pseudovirus 3301.v1.c24 (HIV-1)
[25] = molecular target: HIV-1 Env of pseudovirus 211-9 (HIV-1)
[26] = molecular target: HIV-1 Env of pseudovirus R3265.c06 (HIV-1)
[27] = molecular target: HIV-1 Env of pseudovirus BJOX010000.06.2 (HIV-1)
[28] = molecular target: HIV-1 Env of pseudovirus 620345.c01 (HIV-1)
[29] = molecular target: HIV-1 Env of pseudovirus C3347.c11 (HIV-1)
[30] = molecular target: HIV-1 Env of pseudovirus 6540.v4.c1 (HIV-1)
[31] = molecular target: HIV-1 Env of pseudovirus T278-50 (HIV-1)
[32] = molecular target: HIV-1 Env of pseudovirus R2184.c04 (HIV-1)
[33] = molecular target: HIV-1 Env of pseudovirus R1166.c01 (HIV-1)
[34] = molecular target: HIV-1 Env of pseudovirus 9004SS_A3_4 (HIV-1)
[35] = molecular target: HIV-1 Env of pseudovirus 191084 B7-19 (HIV-1)
[36] = molecular target: HIV-1 Env of pseudovirus 263-8 (HIV-1)
[37] = molecular target: HIV-1 Env of pseudovirus T257-31 (HIV-1)

Substance: 10E8 (antibody)
- IC50 neutralization (TZM.bl) [1]: 0.343 µg/mL
- IC80 neutralization (TZM.bl) [1]: 1.91 µg/mL
- IC50 neutralization (TZM.bl) [2]: 0.665 µg/mL
- IC80 neutralization (TZM.bl) [2]: 7.36 µg/mL
- IC50 neutralization (TZM.bl) [3]: 2.36 µg/mL
- IC80 neutralization (TZM.bl) [3]: > 10 µg/mL
- IC50 neutralization (TZM.bl) [4]: 0.189 µg/mL
- IC80 neutralization (TZM.bl) [4]: 0.974 µg/mL
- IC50 neutralization (TZM.bl) [5]: > 10 µg/mL
- IC80 neutralization (TZM.bl) [5]: > 10 µg/mL
- IC50 neutralization (TZM.bl) [6]: 0.057 µg/mL
- IC80 neutralization (TZM.bl) [6]: 0.285 µg/mL
- IC50 neutralization (TZM.bl) [7]: > 10 µg/mL
- IC80 neutralization (TZM.bl) [7]: > 10 µg/mL
- IC50 neutralization (TZM.bl) [8]: 0.061 µg/mL
- IC80 neutralization (TZM.bl) [8]: 0.731 µg/mL
- IC50 neutralization (TZM.bl) [9]: 0.497 µg/mL
- IC80 neutralization (TZM.bl) [9]: 4.2 µg/mL
- IC50 neutralization (TZM.bl) [10]: 1.57 µg/mL
- IC80 neutralization (TZM.bl) [10]: 9.95 µg/mL
- IC50 neutralization (TZM.bl) [11]: 1.11 µg/mL
- IC80 neutralization (TZM.bl) [11]: 10 µg/mL
- IC50 neutralization (TZM.bl) [12]: > 10 µg/mL
- IC80 neutralization (TZM.bl) [12]: > 10 µg/mL
- IC50 neutralization (TZM.bl) [13]: 1.78 µg/mL
- IC80 neutralization (TZM.bl) [13]: 8.23 µg/mL
- IC50 neutralization (TZM.bl) [14]: 0.107 µg/mL
- IC80 neutralization (TZM.bl) [14]: 6.33 µg/mL
- IC50 neutralization (TZM.bl) [15]: 0.332 µg/mL
- IC80 neutralization (TZM.bl) [15]: 2.87 µg/mL
- IC50 neutralization (TZM.bl) [16]: 0.576 µg/mL
- IC80 neutralization (TZM.bl) [16]: 6.05 µg/mL
- IC50 neutralization (TZM.bl) [17]: 0.172 µg/mL
- IC80 neutralization (TZM.bl) [17]: 3.29 µg/mL
- IC50 neutralization (TZM.bl) [18]: 0.191 µg/mL
- IC80 neutralization (TZM.bl) [18]: 3.13 µg/mL
- IC50 neutralization (TZM.bl) [19]: 2.33 µg/mL
- IC80 neutralization (TZM.bl) [19]: 9.77 µg/mL
- IC50 neutralization (TZM.bl) [20]: 0.476 µg/mL
- IC80 neutralization (TZM.bl) [20]: 4.39 µg/mL
- IC50 neutralization (TZM.bl) [21]: 1.62 µg/mL
- IC80 neutralization (TZM.bl) [21]: 9.06 µg/mL
- IC50 neutralization (TZM.bl) [22]: 4.75 µg/mL
- IC80 neutralization (TZM.bl) [22]: > 10 µg/mL
- IC50 neutralization (TZM.bl) [23]: 0.778 µg/mL
- IC80 neutralization (TZM.bl) [23]: 4.21 µg/mL
- IC50 neutralization (TZM.bl) [24]: 4.63 µg/mL
- IC80 neutralization (TZM.bl) [24]: > 10 µg/mL
- IC50 neutralization (TZM.bl) [25]: 1.09 µg/mL
- IC80 neutralization (TZM.bl) [25]: 6.51 µg/mL
- IC50 neutralization (TZM.bl) [26]: > 10 µg/mL
- IC80 neutralization (TZM.bl) [26]: > 10 µg/mL
- IC50 neutralization (TZM.bl) [27]: 0.341 µg/mL
- IC80 neutralization (TZM.bl) [27]: 5.29 µg/mL
- IC50 neutralization (TZM.bl) [28]: 0.455 µg/mL
- IC80 neutralization (TZM.bl) [28]: 6 µg/mL
- IC50 neutralization (TZM.bl) [29]: 0.016 µg/mL
- IC80 neutralization (TZM.bl) [29]: 0.167 µg/mL
- IC50 neutralization (TZM.bl) [30]: 1.9 µg/mL
- IC80 neutralization (TZM.bl) [30]: 10 µg/mL
- IC50 neutralization (TZM.bl) [31]: 0.949 µg/mL
- IC80 neutralization (TZM.bl) [31]: 7.46 µg/mL
- IC50 neutralization (TZM.bl) [32]: 0.272 µg/mL
- IC80 neutralization (TZM.bl) [32]: 2.46 µg/mL
- IC50 neutralization (TZM.bl) [33]: 0.274 µg/mL
- IC80 neutralization (TZM.bl) [33]: 2.61 µg/mL

Substance: NIH 45-46 (antibody)
- IC50 [34]: 0.18 µg/mL
- IC80 [34]: 0.65 µg/mL
- IC50 [35]: 0.02 µg/mL
- IC80 [35]: 0.07 µg/mL
- IC50 [36]: 0.05 µg/mL
- IC80 [36]: 0.1 µg/mL
- IC50 [37]: 0.23 µg/mL
- IC80 [37]: 1.11 µg/mL

Substance: VRC07 (antibody)
- IC50 [34]: 0.218 µg/mL
- IC80 [34]: 0.75 µg/mL
- IC50 [35]: 0.061 µg/mL
- IC80 [35]: 0.209 µg/mL
- IC50 [36]: 0.103 µg/mL
- IC80 [36]: 0.282 µg/mL
- IC50 [37]: 0.421 µg/mL
- IC80 [37]: 3.17 µg/mL
